Ends that are not written are not given here. * marks the point of attachment. C16 diacid = O=C(O)CCCCCCCCCCCCCCC(=O)*; Stearoyl = CCCCCCCCCCCCCCCCCC(=O)*; Palmitoyl = CCCCCCCCCCCCCCCC(=O)*; Myristoyl = CCCCCCCCCCCCCC(=O)*; Lauroyl = CCCCCCCCCCCC(=O)*
T1: human GIP receptor (human, UniProt P48546 22-466)
T1 sequence (looked up): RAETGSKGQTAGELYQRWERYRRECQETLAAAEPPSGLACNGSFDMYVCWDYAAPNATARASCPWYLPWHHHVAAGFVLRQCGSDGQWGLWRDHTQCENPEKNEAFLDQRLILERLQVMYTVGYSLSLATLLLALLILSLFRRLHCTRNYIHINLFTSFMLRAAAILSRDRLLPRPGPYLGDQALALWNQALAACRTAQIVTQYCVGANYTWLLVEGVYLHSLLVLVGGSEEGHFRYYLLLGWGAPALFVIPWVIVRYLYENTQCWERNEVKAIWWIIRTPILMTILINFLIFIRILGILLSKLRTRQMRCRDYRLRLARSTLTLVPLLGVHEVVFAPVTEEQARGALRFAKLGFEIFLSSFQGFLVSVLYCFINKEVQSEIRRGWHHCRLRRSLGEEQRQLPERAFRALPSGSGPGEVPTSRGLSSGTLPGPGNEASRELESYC

B1: AT107 [hGIP(3-30)NH2[T5W; D15E; H18A]-C16/16] (peptide)
peptide: EGWFISDYSIAMEK(Palmitoyl)IAQQDFVNWLLAQK-NH2
modifications: N-terminus assumed
SMILES: CCCCCCCCCCCCCCCC(=O)NCCCC[C@H](NC(=O)[C@H](CCC(=O)O)NC(=O)[C@H](CCSC)NC(=O)[C@H](C)NC(=O)[C@@H](NC(=O)[C@H](CO)NC(=O)[C@H](Cc1ccc(O)cc1)NC(=O)[C@H](CC(=O)O)NC(=O)[C@H](CO)NC(=O)[C@@H](NC(=O)[C@H](Cc1ccccc1)NC(=O)[C@H](Cc1c[nH]c2ccccc12)NC(=O)CNC(=O)[C@@H](N)CCC(=O)O)[C@@H](C)CC)[C@@H](C)CC)C(=O)N[C@H](C(=O)N[C@@H](C)C(=O)N[C@@H](CCC(N)=O)C(=O)N[C@@H](CCC(N)=O)C(=O)N[C@@H](CC(=O)O)C(=O)N[C@@H](Cc1ccccc1)C(=O)N[C@H](C(=O)N[C@@H](CC(N)=O)C(=O)N[C@@H](Cc1c[nH]c2ccccc12)C(=O)N[C@@H](CC(C)C)C(=O)N[C@@H](CC(C)C)C(=O)N[C@@H](C)C(=O)N[C@@H](CCC(N)=O)C(=O)N[C@@H](CCCCN)C(N)=O)C(C)C)[C@@H](C)CC
B2: AT105 [hGIP(3-30)NH2-C16/16] (peptide)
peptide: EGTFISDYSIAMDK(Palmitoyl)IHQQDFVNWLLAQK-NH2
B3: AT140 [hGIP(5-30)NH2-C16diacid/16] (peptide)
peptide: TFISDYSIAMDK(C16 diacid)IHQQDFVNWLLAQK-NH2
modifications: N-terminus assumed
SMILES: CC[C@H](C)[C@H](NC(=O)[C@H](CO)NC(=O)[C@H](Cc1ccc(O)cc1)NC(=O)[C@H](CC(=O)O)NC(=O)[C@H](CO)NC(=O)[C@@H](NC(=O)[C@H](Cc1ccccc1)NC(=O)[C@@H](N)[C@@H](C)O)[C@@H](C)CC)C(=O)N[C@@H](C)C(=O)N[C@@H](CCSC)C(=O)N[C@@H](CC(=O)O)C(=O)N[C@@H](CCCCNC(=O)CCCCCCCCCCCCCCC(=O)O)C(=O)N[C@H](C(=O)N[C@@H](Cc1c[nH]cn1)C(=O)N[C@@H](CCC(N)=O)C(=O)N[C@@H](CCC(N)=O)C(=O)N[C@@H](CC(=O)O)C(=O)N[C@@H](Cc1ccccc1)C(=O)N[C@H](C(=O)N[C@@H](CC(N)=O)C(=O)N[C@@H](Cc1c[nH]c2ccccc12)C(=O)N[C@@H](CC(C)C)C(=O)N[C@@H](CC(C)C)C(=O)N[C@@H](C)C(=O)N[C@@H](CCC(N)=O)C(=O)N[C@@H](CCCCN)C(N)=O)C(C)C)[C@@H](C)CC
notes: also called AT140 [hGIP(5-30)-C16-diacid/16]
B4: AT187 [hGIP(5-30)NH2[L27K]-C16diacid/27] (peptide)
peptide: TFISDYSIAMDKIHQQDFVNWLK(C16 diacid)AQK-NH2
modifications: N-terminus assumed
SMILES: CC[C@H](C)[C@H](NC(=O)[C@H](CO)NC(=O)[C@H](Cc1ccc(O)cc1)NC(=O)[C@H](CC(=O)O)NC(=O)[C@H](CO)NC(=O)[C@@H](NC(=O)[C@H](Cc1ccccc1)NC(=O)[C@@H](N)[C@@H](C)O)[C@@H](C)CC)C(=O)N[C@@H](C)C(=O)N[C@@H](CCSC)C(=O)N[C@@H](CC(=O)O)C(=O)N[C@@H](CCCCN)C(=O)N[C@H](C(=O)N[C@@H](Cc1c[nH]cn1)C(=O)N[C@@H](CCC(N)=O)C(=O)N[C@@H](CCC(N)=O)C(=O)N[C@@H](CC(=O)O)C(=O)N[C@@H](Cc1ccccc1)C(=O)N[C@H](C(=O)N[C@@H](CC(N)=O)C(=O)N[C@@H](Cc1c[nH]c2ccccc12)C(=O)N[C@@H](CC(C)C)C(=O)N[C@@H](CCCCNC(=O)CCCCCCCCCCCCCCC(=O)O)C(=O)N[C@@H](C)C(=O)N[C@@H](CCC(N)=O)C(=O)N[C@@H](CCCCN)C(N)=O)C(C)C)[C@@H](C)CC
B5: AT188 [hGIP(5-30)NH2[A28K]-C16diacid/28] (peptide)
peptide: TFISDYSIAMDKIHQQDFVNWLLK(C16 diacid)QK-NH2
modifications: N-terminus assumed
SMILES: CC[C@H](C)[C@H](NC(=O)[C@H](CO)NC(=O)[C@H](Cc1ccc(O)cc1)NC(=O)[C@H](CC(=O)O)NC(=O)[C@H](CO)NC(=O)[C@@H](NC(=O)[C@H](Cc1ccccc1)NC(=O)[C@@H](N)[C@@H](C)O)[C@@H](C)CC)C(=O)N[C@@H](C)C(=O)N[C@@H](CCSC)C(=O)N[C@@H](CC(=O)O)C(=O)N[C@@H](CCCCN)C(=O)N[C@H](C(=O)N[C@@H](Cc1c[nH]cn1)C(=O)N[C@@H](CCC(N)=O)C(=O)N[C@@H](CCC(N)=O)C(=O)N[C@@H](CC(=O)O)C(=O)N[C@@H](Cc1ccccc1)C(=O)N[C@H](C(=O)N[C@@H](CC(N)=O)C(=O)N[C@@H](Cc1c[nH]c2ccccc12)C(=O)N[C@@H](CC(C)C)C(=O)N[C@@H](CC(C)C)C(=O)N[C@@H](CCCCNC(=O)CCCCCCCCCCCCCCC(=O)O)C(=O)N[C@@H](CCC(N)=O)C(=O)N[C@@H](CCCCN)C(N)=O)C(C)C)[C@@H](C)CC
B6: AT189 [hGIP(5-30)NH2[Q29K]-C16diacid/29] (peptide)
peptide: TFISDYSIAMDKIHQQDFVNWLLAK(C16 diacid)K-NH2
modifications: N-terminus assumed
SMILES: CC[C@H](C)[C@H](NC(=O)[C@H](CO)NC(=O)[C@H](Cc1ccc(O)cc1)NC(=O)[C@H](CC(=O)O)NC(=O)[C@H](CO)NC(=O)[C@@H](NC(=O)[C@H](Cc1ccccc1)NC(=O)[C@@H](N)[C@@H](C)O)[C@@H](C)CC)C(=O)N[C@@H](C)C(=O)N[C@@H](CCSC)C(=O)N[C@@H](CC(=O)O)C(=O)N[C@@H](CCCCN)C(=O)N[C@H](C(=O)N[C@@H](Cc1c[nH]cn1)C(=O)N[C@@H](CCC(N)=O)C(=O)N[C@@H](CCC(N)=O)C(=O)N[C@@H](CC(=O)O)C(=O)N[C@@H](Cc1ccccc1)C(=O)N[C@H](C(=O)N[C@@H](CC(N)=O)C(=O)N[C@@H](Cc1c[nH]c2ccccc12)C(=O)N[C@@H](CC(C)C)C(=O)N[C@@H](CC(C)C)C(=O)N[C@@H](C)C(=O)N[C@@H](CCCCNC(=O)CCCCCCCCCCCCCCC(=O)O)C(=O)N[C@@H](CCCCN)C(N)=O)C(C)C)[C@@H](C)CC
B7: AT137 [hGIP(5-30)NH2-C16diacid/5] (peptide)
peptide: {C16 diacid}-TFISDYSIAMDKIHQQDFVNWLLAQK-NH2
SMILES: CC[C@H](C)[C@H](NC(=O)[C@H](CO)NC(=O)[C@H](Cc1ccc(O)cc1)NC(=O)[C@H](CC(=O)O)NC(=O)[C@H](CO)NC(=O)[C@@H](NC(=O)[C@H](Cc1ccccc1)NC(=O)[C@@H](NC(=O)CCCCCCCCCCCCCCC(=O)O)[C@@H](C)O)[C@@H](C)CC)C(=O)N[C@@H](C)C(=O)N[C@@H](CCSC)C(=O)N[C@@H](CC(=O)O)C(=O)N[C@@H](CCCCN)C(=O)N[C@H](C(=O)N[C@@H](Cc1c[nH]cn1)C(=O)N[C@@H](CCC(N)=O)C(=O)N[C@@H](CCC(N)=O)C(=O)N[C@@H](CC(=O)O)C(=O)N[C@@H](Cc1ccccc1)C(=O)N[C@H](C(=O)N[C@@H](CC(N)=O)C(=O)N[C@@H](Cc1c[nH]c2ccccc12)C(=O)N[C@@H](CC(C)C)C(=O)N[C@@H](CC(C)C)C(=O)N[C@@H](C)C(=O)N[C@@H](CCC(N)=O)C(=O)N[C@@H](CCCCN)C(N)=O)C(C)C)[C@@H](C)CC
B8: AT110 [hGIP(3-30)NH2-C14/3] (peptide)
peptide: Myristoyl-EGTFISDYSIAMDKIHQQDFVNWLLAQK-NH2
B9: AT102 [hGIP(3-30)NH2-C12/16] (peptide)
peptide: EGTFISDYSIAMDK(Lauroyl)IHQQDFVNWLLAQK-NH2
B10: AT104 [hGIP(3-30)NH2-C16/3] (peptide)
peptide: Palmitoyl-EGTFISDYSIAMDKIHQQDFVNWLLAQK-NH2
B11: AT113 [hGIP(3-30)NH2-C18/3] (peptide)
peptide: Stearoyl-EGTFISDYSIAMDKIHQQDFVNWLLAQK-NH2
B12: AT101 [hGIP(3-30)NH2-C12/3] (peptide)
peptide: Lauroyl-EGTFISDYSIAMDKIHQQDFVNWLLAQK-NH2

Biological target: T1, human GIP receptor
Test: cell-based or functional assay

Row | Binder | cAMP - antagonisme IC50 | cAMP - antagonisme fold (paired)
1 | B1 | 0.0769 µM | 3.1 fold
2 | B2 | 0.0238 µM | 3.4 fold

Biological target: T1, human GIP receptor
Test: cell-based or functional assay
Remark: another data set of the same source

Row | Binder | cAMP accumulation Fold (fold change from GIP(5-30)NH2) | cAMP accumulation IC50 | cAMP accumulation logIC50
3 | B3 | 7.4 fold | 0.204 µM | -6.69 log(M)
4 | B4 | 67.6 fold | 1.86 µM | -5.73 log(M)
5 | B5 | 6.8 fold | 0.186 µM | -6.73 log(M)
6 | B6 | 3 fold | 0.0832 µM | -7.08 log(M)
7 | B7 | 3.7 fold | 0.102 µM | -6.99 log(M)

Biological target: T1, human GIP receptor
Test: 125I-hGIP(1-42) competition binding, COS-7 cells expressing human GIPR
Description: (§1) After incubation, the cells were washed twice in ice-cold binding buffer (+/−2% HSA) and lysed using 200 mM NaOH with 1% SDS for 30 min. Nonspecific binding was determined as the binding of radioactive ligand to untransfected cells.

Row | Binder | IC50
8 | B8 | 0.055 µM
9 | B9 | 0.0591 µM
10 | B10 | 0.075 µM
11 | B11 | 41.4 µM
12 | B12 | 0.0099 µM
13 | B1 | 5.22 µM
14 | B2 | 0.522 µM

Biological target: T1, human GIP receptor
Test: 125I-hGIP(1-42) competition binding, COS-7 cells expressing human GIPR, with 2% HSA;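 also: nonspecific signal taken as radioligand bound to untransfected cells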
Description: as §1

Row | Binder | Ki
15 | B3 | 3.28 µM
16 | B4 | 3300 µM
17 | B5 | 0.462 µM
18 | B6 | 0.276 µM
19 | B7 | 0.117 µM

Biological target: T1, human GIP receptor
Test: 125I-hGIP(1-42) competition binding, COS-7 cells expressing human GIPR, without HSA;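 also: nonspecific binding defined as radioligand bound to cells lacking the transfected receptor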
Description: as §1

Row | Binder | Ki
20 | B3 | 2.16 µM
21 | B4 | 182 µM
22 | B5 | 0.144 µM
23 | B6 | 0.0855 µM
24 | B7 | 0.0593 µM

Biological target: T1, human GIP receptor
Test: ratio of Ki with 2% HSA to Ki without HSA, 125I-hGIP competition binding on hGIPR COS-7 cells;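 also: nonspecific binding was defined as radioligand signal on cells lacking the receptor transfection, with cell lysates measured after washes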
Description: as §1

Row | Binder | Fold (Ki + HSA / Ki - HSA)
25 | B3 | 1.5 fold
26 | B4 | 18.2 fold
27 | B5 | 3.2 fold
28 | B6 | 3.2 fold
29 | B7 | 2 fold

Biological target: T1, human GIP receptor
Test: 125I-hGIP competition binding on hGIPR COS-7 cells; fold in affinity, paired, reference taken as GIP(3-30)NH2
Description: as §1

Row | Binder | fold (paired)
30 | B8 | 5.2 fold
31 | B9 | 6.1 fold
32 | B10 | 4.9 fold
33 | B11 | 16400 fold
34 | B12 | 0.7 fold
35 | B1 | 186 fold
36 | B2 | 34 fold

Source: patent US20200087373A1 (UNIVERSITY OF COPENHAGEN, published 2020)
